Assay results from US12257281B2, “Hydrophilic antibody-drug conjugates” (priority 2014, dated 2025).
Square brackets hold non-standard residues; d marks the D form. Peptide text beside a SMILES is read from it. * marks the point of attachment. Dolaproine = CO[C@@H]([C@@H]1CCCN1)[C@@H](C)C(=O)O; Hexanoyl(6-maleimido) = O=C1C=CC(=O)N1CCCCCC(=O)*; Dil = CC[C@H](C)[C@H](NC)[C@@H](CC(=O)O)OC; NMeV = CN[C@H](C(=O)O)C(C)C

B1: h1F6-me-vc-PABC-MMAF (conjugate, chains of the INN, looked up)
VH: QVQLVQSGAEVKKPGASVKVSCKASGYTFTNYGMNWVRQAPGQGLKWMGWINTYTGEPTYADAFKGRVTMTRDTSISTAYMELSRLRSDDTAVYYCARDYGDYGMDYWGQGTTVTVSS
VL: DIVMTQSPDSLAVSLGERATINCRASKSVSTSGYSFMHWYQQKPGQPPKLLIYLASNLESGVPDRFSGSGSGTDFTLTISSLQAEDVAVYYCQHSREVPWTFGQGTKVEIK
modifications: me-vc-PABC-MMAF drug conjugate

Legend:
[1] = Hydrophobic Interaction Chromatography (HIC) of 8-loaded ADCs; type: physicochemical; settings: for HIC RT (min) h1F6 8-loads: 8-loaded antibody drug conjugates with antibody h1F6, Table 2; for HIC retention time: ADCs containing the drug linkers as 8 loads, Table 1
Experimental: The hydrophilicity index is measured as the retention time of a conjugate to that of the corresponding unconjugated targeting agent (alone) under high performance liquid chromatography (HPLC) conditions, as further described herein. […] If a different hydrophobic interaction column and/or method is used, it can be calibrated using conjugates from Tables 2 as references to determine reference conjugate mobilities (elution times) on the selected column and/or method. The determined reference mobilities on the selected hydrophobic interaction column and/or method can then be used to calculate a hydrophilicity index of a test article (as would be determined following Example 3). For example, an auristatin T-Glu-Dpr-MA, an me-MMAF and an mc-vc-PABC-MMAE drug linkers can be used to form conjugates to use as references. In another example, an auristatin T-Glu-Dpr-MA-h1F6 ADC, an h1F6-mc-MMAF and an h1F6-mc-vc-PABC-MMAE ADC can be used as references.
Analysis of the ADCs was performed using Hydrophobic Interaction Chromatography (HIC). HIC is performed by running a linear gradient from 0-100% Mobile Phase B (MPB) where Mobile Phase A (MPA) consists of 1.5 M ammonium sulfate, 25 mM potassium phosphate, pH 7.0, and MPB consists of 75% 25 mM potassium phosphate, pH 7.0, 25% isopropanol. Separation was achieved using a Tosoh t-Butyl column (TSK-Gel Butyl-NPR 4.6×35 mm, PN: 14947) heated to 25° C. Test articles were prepared by diluting 70 μg of ADC into MPA such that the total salt concentration is greater than or equal to 1.0 M ammonium sulfate at a total volume of 100 μL. Samples were injected at 90 μL and eluted using a 12 minute gradient. Monitoring at λ=280 nm.

786-O tumors = experiment: Single dose mouse xenograft studies, h1F6 ADCs; type: in vivo; settings: FIG. 6
Description: 786-O cells were obtained from American Type Culture Collection (ATCC, Manassas, VA) and propagated in culture conditions recommended by ATCC. To establish 786-O tumors, 5×10^6 cells were implanted into the right flank of athymic nu/nu female donor mice (Harlan, Indianapolis, IN). When donor tumors were approximately 500 mm^3, mice were euthanized and tumors were aseptically excised and ˜0.5×0.5 mm fragments were loaded into a sterilized 13-gauge trocar for implantation into nu/nu mice. When tumors reached ˜100 mm^3, mice were randomly allocated to treatment groups.
Experimental groups were treated via intraperitoneal injection with compounds at the dose and schedule indicated or alternatively left untreated. Tumors were measured periodically and volumes were calculated using the formula V=((L×W^2)/2). Animals were euthanized when tumors reached the volume of 1000 mm^3 or at the end of the study, whichever came first.
Tumor quadrupling times were chosen as time to endpoint (TTE), which was determined by using the non-liner regression analysis for exponential growth of each individual tumor growth data sets from each experimental animal. The median tumor quadrupling time was calculated based on the tumor volume at the beginning of treatment.
Statistical analysis was conducted using Prism (GraphPad) software for Windows. […]

Row | Molecule | HIC RT (min) h1F6 8-loads [1] | HIC retention time [1] | activity of 8-loaded versus 4-loaded ADC (786-O tumors)
1 | CC[C@H](C)[C@@H]([C@@H](CC(=O)N1CCC[C@H]1[C@H](OC)[C@@H](C)C(=O)N[C@@H](Cc1ccccc1)C(=O)O)OC)N(C)C(=O)[C@@H](NC(=O)[C@H](C(C)C)N(C)C(=O)CCCCCN1C(=O)C=CC1=O)C(C)C [mc-MMAF, maleimidocaproyl MMAF] ({Hexanoyl(6-maleimido)}-[NMeV]V[Dil][Dolaproine]F-OH) | 7.0 min | 7.0 min | –
2 | maleimidocaproyl-valine-citrulline-p-aminobenzyl-carbamoyl MMAE [mc-vc-PABC-MMAE] | 9.8 min | 9.8 min | –
3 | maleimidocaproyl-valine-citrulline-p-aminobenzyl-carbamoyl MMAF [mc-vc-PABC-MMAF] | 8.2 min | 8.2 min | –
4 | B1 | – | – | 4-loaded ADC gave better activity than the 8-loaded ADC
